From article PMC3668167, “Ski-interacting protein (SKIP) interacts with androgen receptor in the nucleus and modulates androgen-dependent transcription” (BMC Biochemistry, 2013)
One block for each binder: values may come before it.

Experiments:
[1] = target: T1, GAL4 DNA binding domain fusion of the AR AF-1 fragment, residues 1-555 (pM-GAL4DBD-AR-AF1) (human, UniProt P10275 1-555); test: cell-based or functional assay
T1 sequence (looked up): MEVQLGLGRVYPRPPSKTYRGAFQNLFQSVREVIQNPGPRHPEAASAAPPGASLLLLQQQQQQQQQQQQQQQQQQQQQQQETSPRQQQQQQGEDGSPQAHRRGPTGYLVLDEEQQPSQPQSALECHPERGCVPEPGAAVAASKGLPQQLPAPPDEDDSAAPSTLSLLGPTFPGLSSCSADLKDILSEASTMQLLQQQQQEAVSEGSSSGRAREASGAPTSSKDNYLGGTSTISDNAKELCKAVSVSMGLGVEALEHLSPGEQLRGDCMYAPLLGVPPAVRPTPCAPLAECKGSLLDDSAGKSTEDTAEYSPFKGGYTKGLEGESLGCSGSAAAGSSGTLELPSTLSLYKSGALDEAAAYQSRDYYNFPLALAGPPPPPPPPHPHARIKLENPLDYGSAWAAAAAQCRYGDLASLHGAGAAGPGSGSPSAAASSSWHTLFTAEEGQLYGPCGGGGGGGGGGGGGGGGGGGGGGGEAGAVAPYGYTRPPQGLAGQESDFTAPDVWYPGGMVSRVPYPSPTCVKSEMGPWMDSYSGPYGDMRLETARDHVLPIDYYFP

[2] = target: T2, GAL4 DNA binding domain fusion of AR-LBD residues 642-917 (pM-GAL4DBD-AR642-917) (human, UniProt P10275 642-917); test: cell-based or functional assay
T2 sequence (looked up): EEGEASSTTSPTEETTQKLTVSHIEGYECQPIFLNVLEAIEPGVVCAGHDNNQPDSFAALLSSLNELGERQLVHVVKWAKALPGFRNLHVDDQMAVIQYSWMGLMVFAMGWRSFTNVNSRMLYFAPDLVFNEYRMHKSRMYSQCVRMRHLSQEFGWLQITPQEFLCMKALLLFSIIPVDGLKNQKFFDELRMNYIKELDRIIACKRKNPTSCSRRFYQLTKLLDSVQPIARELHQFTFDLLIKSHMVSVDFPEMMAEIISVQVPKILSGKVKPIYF

[3] = target: T2, GAL4 DNA binding domain fusion of …; test: two-hybrid; mammalian two-hybrid in HEK293 cells, GAL4(5)E1bTATA-luciferase reporter, GAL4DBD-AR642-917 with pVP16-AR1-538, empty pCGN (no SKIP), 1 nM DHT; activity relative to empty vectors without DHT; conditions: partners not purified
[4] = target: T2, GAL4 DNA binding domain fusion of …; test: two-hybrid; mammalian two-hybrid in HEK293 cells, GAL4(5)E1bTATA-luciferase reporter, GAL4DBD-AR642-917 with pVP16-AR1-538, SKIP-pCGN co-expressed, 1 nM DHT; activity relative to empty vectors without DHT; conditions: partners not purified

mammalian one-hybrid luciferase reporter in HEK293 cells: AR-AF-1 (GAL4DBD-AR1-555) ligand-independent transcriptional activity with overexpressed SKIP against without SKIP [1]: ~5 fold
GAL4 luciferase reporter in HEK293 cells: ligand-dependent (1 nM DHT) activation of the AR-LBD 642-917 construct with overexpressed SKIP (Figure 2 column 7) [2]: 9 fold
B1: HA-tagged Ski-interacting protein (SKIP-pCGN) (natural protein, human, UniProt Q13573 1-536, looked up)
chain: MALTSFLPAPTQLSQDQLEAEEKARSQRSRQTSLVSSRREPPPYGYRKGWIPRLLEDFGDGGAFPEIHVAQYPLDMGRKKKMSNALAIQVDSEGKIKYDAIARQGQSKDKVIYSKYTDLVPKEVMNADDPDLQRPDEEAIKEITEKTRVALEKSVSQKVAAAMPVRAADKLAPAQYIRYTPSQQGVAFNSGAKQRVIRMVEMQKDPMEPPRFKINKKIPRGPPSPPAPVMHSPSRKMTVKEQQEWKIPPCISNWKNAKGYTIPLDKRLAADGRGLQTVHINENFAKLAEALYIADRKAREAVEMRAQVERKMAQKEKEKHEEKLREMAQKARERRAGIKTHVEKEDGEARERDEIRHDRRKERQHDRNLSRAAPDKRSKLQRNENRDISEVIALGVPNPRTSNEVQYDQRLFNQSKGMDSGFAGGEDEIYNVYDQAWRGGKDMAQSIYRPSKNLDKDMYGDDLEARIKTNRFVPDKEFSGSDRRQRGREGPVQFEEDPFGLDKFLEEAKQHGGSKRPSDSSRPKEHEHEGKKRRKE

relative luciferase activity, fold over control [3]: 12 fold
relative luciferase activity, fold over control (SKIP co-expressed) [4]: ~300 fold
B2: VP16 activation domain fusion of AR residues 1-538 (pVP16-AR1-538) (domain or fragment, human, UniProt P10275 1-538, looked up)
chain: MEVQLGLGRVYPRPPSKTYRGAFQNLFQSVREVIQNPGPRHPEAASAAPPGASLLLLQQQQQQQQQQQQQQQQQQQQQQQETSPRQQQQQQGEDGSPQAHRRGPTGYLVLDEEQQPSQPQSALECHPERGCVPEPGAAVAASKGLPQQLPAPPDEDDSAAPSTLSLLGPTFPGLSSCSADLKDILSEASTMQLLQQQQQEAVSEGSSSGRAREASGAPTSSKDNYLGGTSTISDNAKELCKAVSVSMGLGVEALEHLSPGEQLRGDCMYAPLLGVPPAVRPTPCAPLAECKGSLLDDSAGKSTEDTAEYSPFKGGYTKGLEGESLGCSGSAAAGSSGTLELPSTLSLYKSGALDEAAAYQSRDYYNFPLALAGPPPPPPPPHPHARIKLENPLDYGSAWAAAAAQCRYGDLASLHGAGAAGPGSGSPSAAASSSWHTLFTAEEGQLYGPCGGGGGGGGGGGGGGGGGGGGGGGEAGAVAPYGYTRPPQGLAGQESDFTAPDVWYPGGMVSRVPYPSPTCVKSEMGPWMDSYSGPYGDM
notes: androgen receptor, human, N-terminal residues 1-538; also called AR N-terminus; source: HEK293, transfected, mammalian two-hybrid fusion
